Legend:
His-tagged V158 FcγRIIIa = His-tagged V158 FcγRIIIa (UniProt P08637); assay: SPR, receptor immobilized
[1] = biological target: F158 FcγRIIIa as used in SPR (UniProt P08637); assay: SPR
[2] = biological target: extracellular region of human R131 FcγRIIa, GST-tagged (human) (UniProt P12318); assay: AlphaScreen competition: the antibody displaces biotinylated WT antibody (donor beads) from GST-tagged human R131 FcγRIIa (acceptor beads)
[3] = biological target: extracellular region of human V158 FcγRIIIa fused with glutathione S-transferase (GST) (human) (UniProt P08637); assay: AlphaScreen competition as in Example 2 (biotinylated WT antibody on donor beads, GST-tagged human V158 FcγRIIIa on acceptor beads); Fc variants in the context of trastuzumab
[4] = biological target: extracellular region of human V158 FcγRIIIa fused with glutathione S-transferase (GST) (human) (UniProt P08637); assay: AlphaScreen competition
bacterial protein A = bacterial protein A (UniProt P38507); assay: AlphaScreen competition: the antibody displaces biotinylated WT alemtuzumab (donor beads) from protein A coupled directly to acceptor beads
[5] = biological target: FcγRIIIa on human PBMCs, heterozygous V158/F158 (human) (UniProt P08637); assay: cell-based or functional assay

| Substance | Kd (His-tagged V158 FcγRIIIa) | Kd [1] | IC50 (read off the curve) [2] | further results |
| --- | --- | --- | --- | --- |
| alemtuzumab S298A (antibody) | 52 nM | 285 nM | – | – |
| S239N/A330Y/I332E (antibody) | – | – | 6 nM | – |
| S239D/A330L/I332E (antibody) | – | – | 7 nM | – |
| S239N/I332E (antibody) | – | – | – | IC50 (read off the curve) [3]: 0.7 nM |
| alemtuzumab Fc variant 192 (V264E/N297D/I332E by Table 60; printed V264I/N297D/I332E in Table 61) (antibody) | – | – | – | FcγRIIIa Fold [4]: 0.05 fold vs WT |
| alemtuzumab I332E (antibody) | 31 nM | 72 nM | – | IC50 (read off the curve) (bacterial protein A): 1e-09 2M |
| S239D/S298A/I332E (antibody) | – | – | 4 nM | – |
| alemtuzumab V264I/I332E (antibody) | 17 nM | 52 nM | – | ADCC EC50 [5]: 4 ng/mL; ADCC log(EC50) [5]: 0.6 log(ng/ml) |
| alemtuzumab V264I (antibody) | 64 nM | 550 nM | – | IC50 (read off the curve) (bacterial protein A): 1e-09 2M |
| S239D/A330Y/I332E (antibody) | – | – | 3 nM | – |
| alemtuzumab S239D/I332E (antibody) | – | – | 3 nM | ADCC EC50 [5]: 3 ng/mL; ADCC log(EC50) [5]: 0.49 log(ng/ml) |
| WT alemtuzumab (Campath), IgG1, expressed in 293T cells (antibody) | 68 nM | 730 nM | – | – |
| alemtuzumab S298A/E333A/K334A (antibody) | 39 nM | 156 nM | – | – |

— patent US20140370021A1
